Results taken from patent publication US5292651.

Tests used:
[1] = target: T1, NaeI restriction endonuclease (recombinant, crude extract of NEB#777) T2A (Nocardia aerocolonigenes) (UniProt P50187); experiment: cleavage_in_vitro; conditions: PstI-codigested pBR322, NEBuffer 1, 37 C, 1 h; after overnight IPTG induction
T1 sequence: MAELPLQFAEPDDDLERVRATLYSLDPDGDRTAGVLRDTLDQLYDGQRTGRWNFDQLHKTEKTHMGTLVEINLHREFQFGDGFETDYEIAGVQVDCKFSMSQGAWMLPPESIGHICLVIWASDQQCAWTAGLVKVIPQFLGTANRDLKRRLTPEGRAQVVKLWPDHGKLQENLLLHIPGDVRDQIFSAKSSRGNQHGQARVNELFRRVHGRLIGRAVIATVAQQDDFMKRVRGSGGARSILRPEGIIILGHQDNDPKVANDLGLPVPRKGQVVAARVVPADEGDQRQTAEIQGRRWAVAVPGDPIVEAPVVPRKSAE

[2] = target: T2, NaeI restriction endonuclease (recombinant, from pCTnaeIR16-1) T2A (Nocardia aerocolonigenes) (UniProt P50187); experiment: cleavage_in_vitro; conditions: 60 U, 4 h, 37 C, 10 mM MgCl2; nonspecific nicking test
T2 sequence: T1 sequence

Substance: pBR322 plasmid DNA
- activity [1]: 77000 U/g cells

Substance: phiX174 RFI DNA
- activity (% RFI converted to RFII) [2]: < 5
